The source of these data is article PMC5668312, “Structural basis of katanin p60:p80 complex formation” (Scientific Reports, 2017).

This test addresses T1, katanin p80 C-terminal domain (p80-CTD, aa 481-658 of mouse p80), 6xHis-tagged (mouse, UniProt Q8BG40 481-658).
T1 construct: katanin p80 subunit, mouse, C-terminal domain, residues 481-658; also called 6xHis-p80CTD; source: E. coli BL21(DE3), pET28a, co-expressed with p60-MIT, purified (IMAC, SEC); not shown: 6xHis, N-terminal, kept
Kind of test: AUC; sedimentation velocity of the co-purified p60-MIT:p80-CTD complex, 300 nM to 50 μM, 20 °C, 42,000 rpm, 20 mM HEPES pH 7.4, 150 mM NaCl, 2 mM 2-mercaptoethanol; apparent Kd estimated. Particulars: both partners purified.

T1 sequence (Q8BG40 481-658): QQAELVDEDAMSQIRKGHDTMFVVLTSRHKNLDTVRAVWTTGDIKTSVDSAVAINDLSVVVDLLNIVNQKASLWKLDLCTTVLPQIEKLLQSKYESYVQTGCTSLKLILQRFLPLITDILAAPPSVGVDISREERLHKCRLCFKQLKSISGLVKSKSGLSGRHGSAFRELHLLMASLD

B1: katanin p60 MIT domain (p60-MIT, aa 1-78 of mouse p60), wild type (domain or fragment, UniProt Q9WV86 1-78, looked up)
chain: MSLQMIVENVKLAREYALLGNYDSAMVYYQGVLDQMNKYLYSVKDTHLRQKWQQVWQEINVEAKQVKDIMKTLESFKL
notes: katanin p60 subunit, mouse, N-terminal MIT domain, residues 1-78; Co-purified with m2 as the p60-MIT:6xHis-p80CTD complex; source: E. coli BL21(DE3), pET28a, co-expressed with 6xHis-p80-CTD, purified (IMAC, SEC)
Regarding B1, the stoichiometry N (usually a count of units in the complex or per binding partner) was 1.
